One may read the Kd as the constant that tells how readily two partners part at equilibrium.

These results are taken from US20250263476A1 (ARGENX, published 2025).

The target in test [1] is T1, C2 from rat (rat, UniProt Q8CIP8 19-758).
T1 sequence: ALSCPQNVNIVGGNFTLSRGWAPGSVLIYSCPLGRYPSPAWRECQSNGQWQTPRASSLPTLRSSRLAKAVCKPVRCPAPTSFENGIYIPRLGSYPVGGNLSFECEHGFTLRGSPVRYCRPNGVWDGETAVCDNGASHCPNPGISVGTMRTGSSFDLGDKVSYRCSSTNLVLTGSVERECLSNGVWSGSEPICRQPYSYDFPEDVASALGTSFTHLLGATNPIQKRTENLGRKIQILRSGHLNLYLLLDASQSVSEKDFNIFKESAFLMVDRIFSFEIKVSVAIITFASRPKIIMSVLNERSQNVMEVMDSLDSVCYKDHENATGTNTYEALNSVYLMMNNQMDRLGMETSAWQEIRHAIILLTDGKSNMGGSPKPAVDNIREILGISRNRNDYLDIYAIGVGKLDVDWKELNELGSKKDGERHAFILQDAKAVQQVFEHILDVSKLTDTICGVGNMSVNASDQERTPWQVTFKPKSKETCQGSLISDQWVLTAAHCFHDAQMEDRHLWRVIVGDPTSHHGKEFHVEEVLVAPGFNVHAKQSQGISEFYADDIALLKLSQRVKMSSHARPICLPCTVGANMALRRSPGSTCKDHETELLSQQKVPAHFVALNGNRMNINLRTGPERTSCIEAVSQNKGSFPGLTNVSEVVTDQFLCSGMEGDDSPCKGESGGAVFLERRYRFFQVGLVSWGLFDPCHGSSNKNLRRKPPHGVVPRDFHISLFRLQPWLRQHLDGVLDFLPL
The experiment in a line: not described.

Test [2] concerns the target T2, C2 from rabbit (rabbit, UniProt G1SS66 21-744).
T2 sequence: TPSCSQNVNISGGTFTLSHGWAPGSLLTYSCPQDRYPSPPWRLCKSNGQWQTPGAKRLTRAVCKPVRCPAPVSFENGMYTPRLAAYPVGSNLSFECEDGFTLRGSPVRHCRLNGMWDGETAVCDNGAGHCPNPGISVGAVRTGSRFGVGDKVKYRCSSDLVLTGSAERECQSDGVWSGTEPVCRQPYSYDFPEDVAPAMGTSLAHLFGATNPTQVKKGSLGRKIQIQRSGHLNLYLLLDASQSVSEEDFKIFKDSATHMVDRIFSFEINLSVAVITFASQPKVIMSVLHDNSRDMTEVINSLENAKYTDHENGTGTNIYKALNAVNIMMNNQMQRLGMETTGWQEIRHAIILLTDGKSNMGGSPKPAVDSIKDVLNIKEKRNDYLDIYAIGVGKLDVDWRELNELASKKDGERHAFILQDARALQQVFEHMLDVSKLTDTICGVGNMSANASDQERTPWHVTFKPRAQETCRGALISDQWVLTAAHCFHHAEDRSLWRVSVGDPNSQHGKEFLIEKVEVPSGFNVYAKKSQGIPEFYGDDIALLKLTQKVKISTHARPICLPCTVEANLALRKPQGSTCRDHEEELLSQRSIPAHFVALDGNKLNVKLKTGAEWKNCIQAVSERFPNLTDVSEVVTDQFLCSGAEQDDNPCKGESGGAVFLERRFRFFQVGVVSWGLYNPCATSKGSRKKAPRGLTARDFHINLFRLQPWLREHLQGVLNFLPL
The experiment in a line: not described.

In test [3] the target is T3, C2 from mouse (mouse, UniProt P21180 19-760, limits assumed).
T3 sequence (looked up): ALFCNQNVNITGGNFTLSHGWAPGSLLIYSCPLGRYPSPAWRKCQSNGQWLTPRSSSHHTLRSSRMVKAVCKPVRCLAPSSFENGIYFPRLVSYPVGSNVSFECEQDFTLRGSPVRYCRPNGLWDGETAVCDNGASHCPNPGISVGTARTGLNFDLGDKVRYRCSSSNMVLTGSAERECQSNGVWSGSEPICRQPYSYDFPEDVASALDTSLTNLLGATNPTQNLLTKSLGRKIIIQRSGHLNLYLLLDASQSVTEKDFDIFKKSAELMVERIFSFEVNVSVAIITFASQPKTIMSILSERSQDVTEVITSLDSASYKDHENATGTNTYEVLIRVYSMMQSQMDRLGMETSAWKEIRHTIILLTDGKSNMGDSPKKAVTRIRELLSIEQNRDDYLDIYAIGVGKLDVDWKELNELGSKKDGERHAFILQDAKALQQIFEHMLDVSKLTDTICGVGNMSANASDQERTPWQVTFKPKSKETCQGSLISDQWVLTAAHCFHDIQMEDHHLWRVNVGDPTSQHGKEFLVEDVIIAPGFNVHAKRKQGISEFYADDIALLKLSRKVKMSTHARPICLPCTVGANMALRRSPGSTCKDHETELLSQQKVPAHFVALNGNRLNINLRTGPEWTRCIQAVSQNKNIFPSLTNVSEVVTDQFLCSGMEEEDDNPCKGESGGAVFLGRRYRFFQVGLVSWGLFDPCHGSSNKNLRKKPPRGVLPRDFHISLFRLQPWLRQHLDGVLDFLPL
Kind of test: not described.

Test [4] addresses T4, human complement component 2 (C2) (human, UniProt P06681 21-752, limits assumed).
T4 construct: also called human C2
T4 sequence (looked up): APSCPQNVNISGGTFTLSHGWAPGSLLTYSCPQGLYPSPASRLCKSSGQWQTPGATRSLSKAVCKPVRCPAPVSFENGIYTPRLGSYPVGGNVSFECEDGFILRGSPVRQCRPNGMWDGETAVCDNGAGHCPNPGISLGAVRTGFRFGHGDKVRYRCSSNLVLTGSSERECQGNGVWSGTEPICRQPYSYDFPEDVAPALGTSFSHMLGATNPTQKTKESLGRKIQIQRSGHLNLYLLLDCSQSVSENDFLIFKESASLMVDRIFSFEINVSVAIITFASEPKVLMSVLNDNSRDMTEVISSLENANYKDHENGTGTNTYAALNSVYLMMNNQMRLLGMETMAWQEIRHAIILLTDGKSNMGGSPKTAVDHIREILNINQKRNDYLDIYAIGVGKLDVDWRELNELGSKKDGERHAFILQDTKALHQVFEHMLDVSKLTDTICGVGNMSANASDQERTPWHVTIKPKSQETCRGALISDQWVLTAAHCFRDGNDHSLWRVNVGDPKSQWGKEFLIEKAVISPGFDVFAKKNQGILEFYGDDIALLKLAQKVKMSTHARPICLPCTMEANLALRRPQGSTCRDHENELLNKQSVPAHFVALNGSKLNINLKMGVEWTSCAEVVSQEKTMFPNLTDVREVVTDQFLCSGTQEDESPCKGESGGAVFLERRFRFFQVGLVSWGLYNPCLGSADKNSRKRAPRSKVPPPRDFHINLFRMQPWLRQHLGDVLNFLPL
The experiment in a line: method not described; binding stated to be pH- and Ca2+-dependent; lower end of the printed range for human C2; pH/Ca2+ condition not stated.

The target of test [5] is T5, cynomolgus monkey C2 (cynomolgus monkey, UniProt G8F3W0 21-752).
T5 sequence: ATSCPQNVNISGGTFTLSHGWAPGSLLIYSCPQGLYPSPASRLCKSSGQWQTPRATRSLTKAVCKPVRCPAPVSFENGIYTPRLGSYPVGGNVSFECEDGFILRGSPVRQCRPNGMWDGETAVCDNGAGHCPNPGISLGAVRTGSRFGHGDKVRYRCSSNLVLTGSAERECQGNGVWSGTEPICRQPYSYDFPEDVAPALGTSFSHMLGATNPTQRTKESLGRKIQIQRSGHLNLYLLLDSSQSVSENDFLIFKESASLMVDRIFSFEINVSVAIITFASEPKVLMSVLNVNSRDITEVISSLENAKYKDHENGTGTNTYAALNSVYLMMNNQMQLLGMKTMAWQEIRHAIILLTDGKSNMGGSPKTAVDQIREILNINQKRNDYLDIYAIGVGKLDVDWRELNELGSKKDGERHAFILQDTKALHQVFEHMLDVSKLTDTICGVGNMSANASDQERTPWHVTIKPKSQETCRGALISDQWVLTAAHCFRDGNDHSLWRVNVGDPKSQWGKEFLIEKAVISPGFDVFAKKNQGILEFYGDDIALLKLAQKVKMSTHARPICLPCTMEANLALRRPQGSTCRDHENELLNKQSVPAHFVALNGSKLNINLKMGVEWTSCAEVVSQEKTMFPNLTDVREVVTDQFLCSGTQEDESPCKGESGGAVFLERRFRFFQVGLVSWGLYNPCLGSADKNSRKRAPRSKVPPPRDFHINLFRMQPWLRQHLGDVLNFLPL
The experiment in a line: method not described; binding stated to be pH- and Ca2+-dependent; lower end of the printed range for cynomolgus C2; pH/Ca2+ condition not stated.

B1: ARGX-117 (antibody, human IgG1, kappa, L234A L235A, V domains shown)
VH: EVQLVQSGAEVKKPGASVKVSCKASGYTFTDYNMDWVRQATGQGLEWIGDINPNYESTGYNQKFKGRATMTVDKSISTAYMELSSLRSEDTAVYYCAREDDHDAFAYWGQGTLVTVSS
VL: DNVLTQSPDSLAVSLGERATISCRASKSVRTSGYNYMHWYQQKPGQPPKLLIYLASNLKSGVPDRFSGSGSGTDFTLTISSLQAEDAATYYCQHSRELPYTFGQGTKLEIKR
notes: also called anti-C2 antibody
Consider B1, for which the binding result in test [1], in test [2] and in test [3] was “no binding” in each case. Further, the Kd was in the range of 0.109 to 2.02 nM in test [4] and 0.056 to 0.13 nM in test [5].
